Numbered stars: 1 amine (or outer) side, 2 acyl side, 3 side chain; on linkers, the order of the positions; unused ones are H or OH. Bridge positions count the residues as written; N and C are the ends. Square brackets hold non-standard residues; d marks the D form. Side chains are listed from the residue outwards. Ends that are not written are not given here. * marks the point of attachment. C18 diacid = O=C(O)CCCCCCCCCCCCCCCCC(=O)*; γGlu = O=C(O)[C@H](CCC(=O)[*:2])N[*:1]; Aib = CC(C)(N)C(=O)O
Legend:
[1] = target: T1, human amylin receptor (calcitonin receptor co-expressed with receptor activity modifying protein, RAMP3) (human, UniProt P30988 25-474; O60896 24-148); assay: cell-based or functional assay
T1 sequence (looked up) 1: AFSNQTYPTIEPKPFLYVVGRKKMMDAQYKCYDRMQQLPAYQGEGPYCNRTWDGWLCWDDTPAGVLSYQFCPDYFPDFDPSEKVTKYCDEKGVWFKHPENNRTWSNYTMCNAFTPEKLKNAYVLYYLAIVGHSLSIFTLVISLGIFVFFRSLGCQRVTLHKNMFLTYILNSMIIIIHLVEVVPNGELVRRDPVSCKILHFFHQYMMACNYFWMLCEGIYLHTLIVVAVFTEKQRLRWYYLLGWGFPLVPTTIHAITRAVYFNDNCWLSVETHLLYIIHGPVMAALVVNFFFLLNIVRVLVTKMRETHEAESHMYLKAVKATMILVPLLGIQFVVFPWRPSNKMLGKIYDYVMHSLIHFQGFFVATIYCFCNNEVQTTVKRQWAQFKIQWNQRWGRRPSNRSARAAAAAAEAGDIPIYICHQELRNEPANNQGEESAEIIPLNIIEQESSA
T1 sequence (looked up) 2: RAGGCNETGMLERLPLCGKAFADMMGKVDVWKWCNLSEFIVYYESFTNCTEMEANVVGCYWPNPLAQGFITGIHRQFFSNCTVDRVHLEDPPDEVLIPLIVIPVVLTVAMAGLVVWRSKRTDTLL

[2] = target: T2, human calcitonin receptor (human, UniProt P30988 25-474); assay: cell-based or functional assay
T2 sequence (looked up): T1 sequence (looked up) 1

B1: Peptide 47 (SEQ ID NO: 47) (peptide)
peptide: K([γGlu-C18 diacid])KCNTATCATQRLAHFLVHSS[Aib]NFGPILPPTNVGSETY-NH2
modifications: disulfide 3-8; N-terminus assumed
SMILES: CC[C@H](C)[C@H](NC(=O)[C@@H]1CCCN1C(=O)CNC(=O)[C@H](Cc1ccccc1)NC(=O)[C@H](CC(N)=O)NC(=O)C(C)(C)NC(=O)[C@H](CO)NC(=O)[C@H](CO)NC(=O)[C@H](Cc1c[nH]cn1)NC(=O)[C@@H](NC(=O)[C@H](CC(C)C)NC(=O)[C@H](Cc1ccccc1)NC(=O)[C@H](Cc1c[nH]cn1)NC(=O)[C@H](C)NC(=O)[C@H](CC(C)C)NC(=O)[C@H](CCCNC(=N)N)NC(=O)[C@H](CCC(N)=O)NC(=O)[C@@H](NC(=O)[C@H](C)NC(=O)[C@@H]1CSSC[C@H](NC(=O)[C@H](CCCCN)NC(=O)[C@@H](N)CCCCNC(=O)CC[C@H](NC(=O)CCCCCCCCCCCCCCCCC(=O)O)C(=O)O)C(=O)N[C@@H](CC(N)=O)C(=O)N[C@@H]([C@@H](C)O)C(=O)N[C@@H](C)C(=O)N[C@@H]([C@@H](C)O)C(=O)N1)[C@@H](C)O)C(C)C)C(=O)N[C@@H](CC(C)C)C(=O)N1CCC[C@H]1C(=O)N1CCC[C@H]1C(=O)N[C@H](C(=O)N[C@@H](CC(N)=O)C(=O)N[C@H](C(=O)NCC(=O)N[C@@H](CO)C(=O)N[C@@H](CCC(=O)O)C(=O)N[C@H](C(=O)N[C@@H](Cc1ccc(O)cc1)C(N)=O)[C@@H](C)O)C(C)C)[C@@H](C)O
EC50 (cAMP production) [1]: 218 pM
Ratio (EC50 hCTR / EC50 hAMYR3) [1]: 2
EC50 (cAMP production) [2]: 468 pM

B2: Peptide 49 (SEQ ID NO: 49) (peptide)
peptide: K([γGlu-γGlu-C18 diacid])CNTATCATQRLANFLVHSS[Aib]NFGPILPPTEVGSNTY-NH2
modifications: disulfide 2-7; N-terminus assumed
SMILES: CC[C@H](C)[C@H](NC(=O)[C@@H]1CCCN1C(=O)CNC(=O)[C@H](Cc1ccccc1)NC(=O)[C@H](CC(N)=O)NC(=O)C(C)(C)NC(=O)[C@H](CO)NC(=O)[C@H](CO)NC(=O)[C@H](Cc1c[nH]cn1)NC(=O)[C@@H](NC(=O)[C@H](CC(C)C)NC(=O)[C@H](Cc1ccccc1)NC(=O)[C@H](CC(N)=O)NC(=O)[C@H](C)NC(=O)[C@H](CC(C)C)NC(=O)[C@H](CCCNC(=N)N)NC(=O)[C@H](CCC(N)=O)NC(=O)[C@@H](NC(=O)[C@H](C)NC(=O)[C@@H]1CSSC[C@H](NC(=O)[C@@H](N)CCCCNC(=O)CC[C@H](NC(=O)CC[C@H](NC(=O)CCCCCCCCCCCCCCCCC(=O)O)C(=O)O)C(=O)O)C(=O)N[C@@H](CC(N)=O)C(=O)N[C@@H]([C@@H](C)O)C(=O)N[C@@H](C)C(=O)N[C@@H]([C@@H](C)O)C(=O)N1)[C@@H](C)O)C(C)C)C(=O)N[C@@H](CC(C)C)C(=O)N1CCC[C@H]1C(=O)N1CCC[C@H]1C(=O)N[C@H](C(=O)N[C@@H](CCC(=O)O)C(=O)N[C@H](C(=O)NCC(=O)N[C@@H](CO)C(=O)N[C@@H](CC(N)=O)C(=O)N[C@H](C(=O)N[C@@H](Cc1ccc(O)cc1)C(N)=O)[C@@H](C)O)C(C)C)[C@@H](C)O
EC50 (cAMP production) [1]: 334 pM
Ratio (EC50 hCTR / EC50 hAMYR3) [1]: 12
EC50 (cAMP production) [2]: 4140 pM

From US20220204580A1 (AstraZeneca / MedImmune, published 2022)
